Results published in US20230416825A1.
Where two headings read alike, the source gives them in different places.

B1: SPINK9 (I20-C86.C22S.H48R.M49E)-Fc (Fc fusion, not shown: a dimerising Fc or GST)
chain: IESAKQTKQMVDCSHYKKLPPGQQRFCHREYDPICGSDGKTYKNDCFFCSKVKKTDGTLKFVHFGKC

Assays:
[1] = target: Recombinant human KLK5 (Genentech) (human) (UniProt Q9Y337); experiment: cell-based or functional assay
[2] = target: Recombinant human KLK5 (Genentech) (human) (UniProt Q9Y337); experiment: cell-based or functional assay; remark: listed apart in the source

Sequence of UniProt Q9Y337 (Q9Y337 67-293 limits assumed, form in doubt): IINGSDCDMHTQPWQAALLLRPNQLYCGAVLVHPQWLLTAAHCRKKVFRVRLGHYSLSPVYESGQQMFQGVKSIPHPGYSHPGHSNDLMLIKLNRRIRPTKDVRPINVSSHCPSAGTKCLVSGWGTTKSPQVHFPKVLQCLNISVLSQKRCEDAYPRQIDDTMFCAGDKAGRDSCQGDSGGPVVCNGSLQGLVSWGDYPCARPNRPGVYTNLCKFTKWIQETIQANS

Molecule | IC50, LC/MS assay of KLK5 (0.5 nM) cleavage of pro-KLK1 [1] [nM] | IC50, LC/MS assay of KLK5 (5 nM) cleavage of pro-KLK7 (15 nM) [1] [nM] | direct KLK5 activity assay at 20, 10, 5 and 2.5 nM KLK5: reduction in cleavage of the fluorescent peptide substrate [1] [%] | maximum KLK5 inhibition, LC/MS assay of KLK5 (0.5 nM) cleavage of pro-KLK1 [1] [%] | IC50, LC/MS assay of KLK5 (0.5 nM) cleavage of pro-KLK1 [2] [nM] | IC50, LC/MS assay of KLK5 (5 nM) cleavage of pro-KLK7 (15 nM) [2] [nM]
mAb1108 (Monoclonal Mouse IgG2b Clone #193318, R & D Systems, Minneapolis, MN) (antibody) | 0.34 | 1.86 | 30 | 40 |  | 
B1 |  |  |  |  | 0.58 | 1.13
